# Experimental data: US20230381229A1 (ALPINE IMMUNE SCIENCES, INC., published 2023)
# Positions count from the first letter of the chain named. In names and notes the source's numbering stands.
# T1: TIGIT (human)
# T1 chain: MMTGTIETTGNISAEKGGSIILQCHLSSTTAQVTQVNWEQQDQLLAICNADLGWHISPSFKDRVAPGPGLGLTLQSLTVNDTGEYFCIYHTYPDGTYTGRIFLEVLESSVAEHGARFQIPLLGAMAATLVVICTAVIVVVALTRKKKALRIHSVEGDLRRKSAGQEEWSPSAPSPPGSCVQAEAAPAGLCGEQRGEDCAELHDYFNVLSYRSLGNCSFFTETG
# T2: human TIGIT (human)
# T2 chain: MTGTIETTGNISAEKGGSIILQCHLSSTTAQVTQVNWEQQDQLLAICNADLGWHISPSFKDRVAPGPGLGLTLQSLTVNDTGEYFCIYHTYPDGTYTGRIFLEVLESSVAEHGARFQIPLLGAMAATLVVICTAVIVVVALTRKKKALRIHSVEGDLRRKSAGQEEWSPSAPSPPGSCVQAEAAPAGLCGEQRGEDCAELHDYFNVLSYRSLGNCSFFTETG
# B1: Full length ECD of PD-L2 (ligand)
# chain: LFTVTVPKELYIIEHGSNVTLECNFDTGSHVNLGAITASLQKVENDTSPHRERATLLEEQLPLGKASFHIPQVQVRDEGQYQCIIIYGVAWDYKYLTLKVKASYRKINTHILKVPETDEVELTCQATGYPLAEVSWPNVSVPANTSHSRTPEGLYQVTSVLRLKPPPGRNFSCVFWNTHVRELTLASIDLQSQMEPRTHPT
# B2: variant CD155 IgV-Fc V9L, P18T, Q62R, L79P, F91S, L104M, G111R (Fc fusion)
# chain: WPPPGTGDLVVQAPTQVTGFLGDSVTLPCYLQVPNMEVTHVSQLTWARHGESGSMAVFHQTRGPSYSESKRLEFVAARPGAELRNASLRMSGLRVEDEGNYTCMFVTFPQRSRSVDIWLRVLGSGGGGSEPKSSDKTHTCPPCPAPEAEGAPSVFLFPPKPKDTLMISRTPEVTCVVVDVSHEDPEVKFNWYVDGVEVHNAKTKPREEQYNSTYRVVSVLTVLHQDWLNGKEYKCKVSNKALPAPIEKTISKAKGQPREPQVYTLPPSRDELTKNQVSLTCLVKGFYPSDIAVEWESNGQPENNYKTTPPVLDSDGSFFLYSKLTVDKSRWQQGNVFSCSVMHEALHNHYTQKSLSLSPGK
# B3: variant CD155 IgV-Fc P18C, T26M, L44V, M55I, Q62K, L79P, F91S, L104M, T107M (Fc fusion)
# chain: B2 chain with L9V, T18C, T26M, L44V, M55I, R62K, T107M, R111G
# B4: variant CD155 IgV-Fc P18T, E37G, G53R, Q62K, L79P, F91S, E98D, L104M, T107M (Fc fusion)
# chain: B2 chain with L9V, E37G, G53R, R62K, E98D, T107M, R111G
# B5: variant CD155 IgV-Fc D8G, P18S, M36I, V38A, H49Q, A76E, F91S, L104M, T107A, R113W (Fc fusion)
# chain: WPPPGTGGVVVQAPTQVSGFLGDSVTLPCYLQVPNIEATHVSQLTWARQGESGSMAVFHQTQGPSYSESKRLEFVEARLGAELRNASLRMSGLRVEDEGNYTCMFVAFPQGSWSVDIWLRVLGSGGGGSEPKSSDKTHTCPPCPAPEAEGAPSVFLFPPKPKDTLMISRTPEVTCVVVDVSHEDPEVKFNWYVDGVEVHNAKTKPREEQYNSTYRVVSVLTVLHQDWLNGKEYKCKVSNKALPAPIEKTISKAKGQPREPQVYTLPPSRDELTKNQVSLTCLVKGFYPSDIAVEWESNGQPENNYKTTPPVLDSDGSFFLYSKLTVDKSRWQQGNVFSCSVMHEALHNHYTQKSLSLSPGK
# B6: variant CD155 IgV-Fc P18S, S52P, S65A, S67V, L79P, F91S, L104M, T107S, R113W (Fc fusion)
# chain: B2 chain with L9V, T18S, S52P, R62Q, S65A, S67V, T107S, R111G, R113W
# B7: variant CD155 IgV-Fc T15I, P18T, L79P, F91S, L104M, G111R (Fc fusion)
# chain: B2 chain with L9V, T15I, R62Q
# B8: variant CD155 IgV-Fc P18F, S65A, S67V, F91S, L104M, G111R (Fc fusion)
# chain: B2 chain with L9V, T18F, R62Q, S65A, S67V, P79L
# B9: variant CD155 IgV-Fc P18F, T26M, L44V, Q62K, L79P, E82D, F91S, L104M, G111D (Fc fusion)
# chain: B2 chain with L9V, T18F, T26M, L44V, R62K, E82D, R111D
# B10: variant CD155 IgV-Fc P18T, M36T, S65A, S67E, L79Q, A81T, F91S, G111R (Fc fusion)
# chain: B2 chain with L9V, M36T, R62Q, S65A, S67E, P79Q, A81T, M104L
# B11: variant CD155 IgV-Fc V9L, P18L, L79P, M90I, F91S, T102S, L104M, G111R (Fc fusion)
# chain: B2 chain with T18L, R62Q, M90I, T102S
# B12: variant CD155 IgV-Fc P18L, K70E, L79P, F91S, V95A, G111R (Fc fusion)
# chain: B2 chain with L9V, T18L, R62Q, K70E, V95A, M104L
# B13: variant CD155 IgV-Fc V9I, P18T, D23G, L79P, F91S, G111R (Fc fusion)
# chain: B2 chain with L9I, D23G, R62Q, M104L
# B14: variant CD155 IgV-Fc V9I, Q12K, P18F, S65A, S67V, L79P, L104T, G111R, S112I (Fc fusion)
# chain: B2 chain with L9I, Q12K, T18F, R62Q, S65A, S67V, S91F, M104T, S112I
# B15: variant CD155 IgV-Fc V9I, V10I, P18S, F20S, T45A, L79P, F91S, L104M, F108Y, G111R, S112V (Fc fusion)
# chain: B2 chain with L9I, V10I, T18S, F20S, T45A, R62Q, F108Y, S112V
# B16: variant CD155 IgV-Fc V9L, V11M, P18S, N35S, S54G, Q62K, L79P, L104M, T107M, V115M (Fc fusion)
# chain: B2 chain with V11M, T18S, N35S, S54G, R62K, S91F, T107M, R111G, V115M
# Target: PD-1 (human)
# Sequence (chain, as listed by the source): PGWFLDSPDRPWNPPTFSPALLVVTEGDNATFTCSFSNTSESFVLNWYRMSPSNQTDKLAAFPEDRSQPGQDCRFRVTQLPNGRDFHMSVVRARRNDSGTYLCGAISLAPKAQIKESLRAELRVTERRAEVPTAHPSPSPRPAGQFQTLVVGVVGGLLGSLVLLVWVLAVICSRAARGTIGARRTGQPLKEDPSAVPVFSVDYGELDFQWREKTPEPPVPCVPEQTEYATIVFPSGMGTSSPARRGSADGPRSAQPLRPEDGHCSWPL
# Test: cell-based or functional assay
row,IFN gamma levels pg/ml (MLR) [pg/mL],Binder
1,1170,B1

# Target: T1, TIGIT
# Test: cell-based or functional assay
row,"IL-2 luciferase reporter, Normalized Fold Change from CD155-ECD, proteins at 50 nM [fold]",Binder
1,7.4,B2
2,1.6,B3
3,8.6,B4
4,4,B5
5,-0.1,B6
6,0.4,B7
7,0.6,B8
8,4,B9
9,-0.9,B10
10,2.4,B11
11,2.4,B12
12,2,B13
13,2.3,B14
14,-1.9,B15

# Target: T2, human TIGIT
# Test: flow cytometry, transfected HEK293 cells
row,MFI at 25 nM,Binder
1,3000,B16
